Assay: soluble on expression in E. coli; label from the status in PepcDB or PDB records

MIPEPDILVVGGGLGGVAAALAACRAGRSVVLTEETDWIGGQLTSQAVPPDEHPWVEQFGTTATYRRLREGIRQYYRQWYPLRAEAAALTDLNPGAGRVSKLCHEPRVALAVLEGMLAPHRAAGRLTVLTEHRPVAAETDNDVVRAVTLEDLRDGTRRTVPARYVLDATETGELLHLAGVEHVNGAESRAEFDEPHAPDRAQPGNQQGITVCFALSHHEGEDHTIDRPADYDFWRDYKPDFWPGPLLGFEAPDPRTLEPVPRTFEPNPDLDPLAVSADQSADAGDKELWGFRRILARKLHTDGAFDSDITLVNWPLNDYWLKPYIGQEAEALREARQLSLSVLYWLQTEAPRTDGGTGFPGLRPRPDVTGTADGLAKAAYVRESRRIKAVTTVTEHDVSIDLLGPYGRTRHRDSVGVGNYRIDLHPSTGGDGYVDIGSVPFEIPLGALVPRRVRNLLPAGKNLGTTHITNGCYRLHPVEWNVGEVAGALAAHCLAEDVEPHQVQAEDKRFEEFARVLDHDGVQRHWPDVRGYLEHHHHHH
soluble on expression in E. coli: not soluble

MPPMAKNAAVTDVVHLDSDSDSDNGVVGGRESASTIAGAATMAPRETLECRSFWKAGDYFVIPNVVTPTAPAIAELLDNAVDEIQNGATFVKIDKINIVKDNSPALVFQDDGGGMDPAGLRKCMSLGYSSKKSNTTIGQYGNGFKTSTMRLGADAIVFSRSTRGGTSTQSVGILSYTFLRKTGQDDVTVPMIRYVMQIDIDISKERPQPIIYGSPEDWAANLEILLKWSPFSTEDELLQQSVLLIFLFPSSTHQFEDVGTHGTKVIIYNLWLNDEGIYELSFDDDEEVTHTFPQLIYTRRDILPEDIRLRDESVNDGKRLHHKILELRSHISYHLRYSLRAYASMLYLKKFKNFKIIIRGIPVEQFNIADGFRFPEIIKYKPHTATTEQASTEIKIGFVKEAPKLAICGFNVYHKNRLIRDTGNNLDGKSAGEIRQENLQLFMRYIYKKRKIRISISYLCGDLNQILFFNRCEEYIKKENETEQTVKSLEKELEEFKSKCAHLALLVDAKKKEMQQA
soluble on expression in E. coli: soluble

NLDALREVLECPICMESFTEEQLRPKLLHCGHTICRQCLEKLLASSINGVRCPFCSKITRITSLTQLTDNLTVLK
soluble on expression in E. coli: soluble

MGSSEVSIIPGLQKEEKAAVERRRLHVLKALKKLRIEADEAPVVAVLGSGGGLRAHIACLGVLSEMKEQGLLDAVTYLAGVSGSTWAISSLYTNDGDMEALEADLKHRFTRQEWDLAKSLQKTIQAARSENYSLTDFWAYMVISKQTRELPESHLSNMKKPVEEGTLPYPIFAAIDNDLQPSWQEARAPETWFEFTPHHAGFSALGAFVSITHFGSKFKKGRLVRTHPERDLTFLRGLWGSALGNTEVIREYIFDQLRNLTLKGLWRRAVANAKSIGHLIFARLLRLQESSQGEHPPPEDEGGEPEHTWLTEMLENWTRTSLEKQEQPHEDPERKGSLSNLMDFVKKTGICASKWEWGTTHNFLYKHGGIRDKIMSSRKHLHLVDAGLAINTPFPLVLPPTREVHLILSFDFSAGDPFETIRATTDYCRRHKIPFPQVEEAELDLWSKAPASCYILKGETGPVVMHFPLFNIDACGGDIEAWSDTYDTFKLADTYTLDVVVLLLALAKKNVRENKKKILRELMNVAGLYYPKDSARSCCLA
soluble on expression in E. coli: soluble

MTVTFTLPLDCSFNNLWTCHAEGIERDLGKVGGGAASSGKTSTGVSRTVTRGVNLSGADFSEQDLSGVSFQQSLLRETDFHGAKLVSASFFGAELSYANLEDADLTEANLELANLRSAKLKNAVLRRAYFSGNTRLENVDIDGADFSEVILRKDQKKYLCNIANGTNSHTGVETKTSLGCNSS
soluble on expression in E. coli: not soluble

MGHHHHHHSHMESVALYSFQATESDELAFNKGDTLKILNMEDDQNWYKAELRGVEGFIPKNYIRVKPHPWYSGRISRQLAEEILMKRNHLGAFLIRESESSPGEFSVSVNYGDQVQHFKVLREASGKYFLWEEKFNSLNELVDFYRTTTIAKKRQIFLRDEEPLLKSPGACFAQAQFDFSAQDPSQLSFRRGDIIEVLERPDPHWWRGRSCGRVGFFPRSYVQPVHL
soluble on expression in E. coli: not soluble

MGIRELNLTKEQHEWLNGWLELWAHGLSGRLEKRMSSVIAKFMESIEPGRVMTRPMCNDDDGMLISQVVDSVMYIDKKAFGILLSYYAHGSSKHAIASYYHRVARPRKMLCRGGGRIQKPSLATCRREVDEILNASLFMIYPVLDSAFKNRKRVEKIKHVALEHHHHHH
soluble on expression in E. coli: soluble

GIDVIGKKMTLCQLYAKQNAVRPNVKANTKSGRKYLMEILKNDRLGARSIDSIKPSDAKEWAIRMSENGFAYSTINNYKRSLRASFYIAIQDDYVRKNPFDFQLNTVIDDDTIPKTVLTSEQEARLLDFAKSDTVYHKNYDEILILLKTGLRISELCGLTVSDLDFENHLISVDHQLLRNTELGYYIETPKTKSSERQIPMEATCQALKRTLAKRDDRKCVEIDGYSHFLFLNRKGYPKTSGDFDRILRNLIKKYNKYHEEKLPHITPHTLRHTFCTNCANAGMNPKALQYIMGHANITMTLNYYAHATYKFGYG
soluble on expression in E. coli: not soluble

MSLNYSDPVTFEILGVVANYGQEGCFMLAQLPPALQSLHLPLRLKLWDGNHFDLGPSPQVTILVKEPQLISQLTHPSMDQLGTAFVEGKLELEGDIGEAIRVCDELSEALLADEDETPPPRVSHDKTTDAKAISYHYDVSNAFYQLWLDQDMAYSCAYFREPDNTLDQAQQDKFDHLCRKLRLDAGDYLLDVGCGWGGLARFAAREYGAKVFGITLSKEQLKLGRKRVQAEGLADKVDLQILDYRDLPQDGRFDKVVSVGMFEHVGHANLALYCQKLFGAVREGGLVMNHGITAKHVDGRPVGRGAGEFIDRYVFPHGELPHLSMISASICEAGLEVVDVESLRLHYAKTLHHWSENLENQLHKAAALVPEKTLRIWRLYLAGCAYAFQKGWINLHQILAVKPYADGHHDLPWTREDLYREGHHHHHH
soluble on expression in E. coli: soluble

MPSRLHSAVMSGTRDGDLNAAIRTALGKVIDPELRRPITELGMVKSIDTGPDGSVHVEIYLTIAGCPKKSEITERVTRAVADVPGTSAVRVSLDVMSDEQRTELRKQLRGDTREPVIPFAQPDSLTRVYAVASGKGGVGKSTVTVNLAAAMAVRGLSIGVLDADIHGHSIPRMMGTTDRPTQVESMILPPIAHQVKVISIAQFTQGNTPVVWRGPMLHRALQQFLADVYWGDLDVLLLDLPPGTGDVAISVAQLIPNAELLVVTTPQLAAAEVAERAGSIALQTRQRIVGVVENMSGLTLPDGTTMQVFGEGGGRLVAERLSRAVGADVPLLGQIPLDPALVAAGDSGVPLVLSSPDSAIGKELHSIADGLSTRRRGLAGMSLGLDPTRR
soluble on expression in E. coli: not soluble

MSLSTYTTGELAKHVGVSVRTIQYYDQRGLLTPMTTAGGRREYTAQDIERLQLILVLKSMGLKLAAIKDILNSPNATDVLQLLLTEQVQRLRQDQAATTTQLKTVIAVQKALAVSGPFPLESIHDMDQLMTNQQREGHHHHHH
soluble on expression in E. coli: not soluble

MGHHHHHHSHMEALARLHLTVTRAYKVNTDINFEVFIHKVDGLSDDHKIETQRDIHQRANDDLADAGLEKIHLSFYLTSIYDHSIFEAFSKVVQKLIPQLPTLENLLNIFISNSGIEKAFLFDVVSKIYIATDSTPVDMQTYELCCDMIDVVIDISCIYGLKEDGAGTPYDKESTAIIKLNNTTVLYLKEVTKFLALVCFVREESFERKGLIDYNFHCFRKAIHEVFEVRMKVVKSRKVQNRLQKKKRATPNGTPRVLL
soluble on expression in E. coli: soluble

MNKQLLSCSLKSGKQVTMVVASVATDGVDQQVEISYYDQKVIGNGSFGVVFLAKLSTTNEMVAIKKVLQDKRFKNRELQIMRKLNHPNIVKLKYFFYSSGEKKDELYLNLILEYVPETVYRVARHYSKQRQQIPMIYVKLYMYQLLRSLAYIHSIGICHRDIKPQNLLIDPESGVLKLCDFGSAKYLVRNEPNVSYICSRYYRAPELIFGATNYTNSIDVWSAGTVMAELLLGQPIFPGDSGVDQLVEIIKVLGTPTREQIQSMNPNYKEFKFPQIKAHPWNKVFRVHTPAEAIDLISKIIEYTPTSRPTPQAACQHAFFDELRNPDARLPSGRPLPTLEMDGPMGTGEVSTTSGDVAGPSA
soluble on expression in E. coli: not soluble

MSLRNKIKSWLLNASEYDFTDIKEGIRLHLNESPFEPPQFIIDAVKMYLSKGNRYQHPDLLEKYRELAAEYSKVEPENIYPSVGADGSIRAIFYNLVEPGDTILTNYPSYSMYSVYSSVRGTKVIKVNLKEDNEWWKENTDDLLAQAEKVELVIIDDPNNPTGSPMLNGKKELIGQLAENTKGFVVIDEAYYEFGGYTVSPYIYDYPNVLVVRTLSKAFSLASYRLGYTIANEEIVKALMKSSTPFDIPLPSLIAGITALENPSYIKDVVNIVNRNREILYQGLKNLNLKVYKSITNFLLIKDNRNLQEMLMRHGIAIRKLYDNFYRITIGTEDQCKMVIDKLGEELENSNSEGHHHHHH
soluble on expression in E. coli: soluble

MGMIGYFAEIDSEKINQLLESTEKPLMDNIHDTLSGLRRLDIDKRWDFLHFGLTGTSAFDPAKNDPLSRAVLGEHSLEDGIDGFLGLTWNQELAATIDRLESLDRNELRKQFSIKRLNEMEIYPGVTFSEELEGQLFASIMLDMEKLISAYRRMLRQGNHALTVIVG
soluble on expression in E. coli: soluble

MGSDKIHHHHHHMLKQLYLTVLRWRPYKHKKVKIVYIMSFPRNDGHLIEQLEQHYHGMIIVLYTKNCQSYAASLNQKGIKTILFDKKTLLITTAISYLKSAPLIFVDNYFPELAILKKKQVVIQLWHANGALKQFGWGAYHTKHRSSKDQIRFQKVYDKMNYFIVNSLKMEAIFRNNYRLENAQFCHFGSPRLAYLEKLEVGETNQNNKVLYAPTYREGMNEMMLVINQAIKAFSAMPNFHFYMKLHPSIQLDAIELPRNVSIWEKHIFESFSEIGYLITDYSSVVFEYMHVKEQPNILFFCPDLEKYALNPGIEPDFFEYLPGPLVENEKQLIVALSNFSINSYKDNITRINEEWNQYQSKETINKIVELVERILGGFCEK
soluble on expression in E. coli: not soluble

MKSILEQLSSMTVVVADTGDLDSIKKFQPRDATTNPSLILAAAKNPDYVKLIDKAIESSENTLPNGFSEIELIKETVDQVSVFFGKEILKIISGRVSTEVDARLSFDTEATVKKARKLINLYKNFGIEKERILIKIAATWEGIKAAEILEKEGIKCNLTLLFNFCQAVTCANANITLISPFVGRILDWHKAKTGKTSFIGAEDPGVISVTQIYKYFKEKGFKTEVMGASFRNLDEIKELAGCDLLTIAPKFLEELKREKGVLIRKLDASTKINNSIDYKFEEKDFRLSMLEDQMASEKLSEGITGFSKAIEELEELLIERLSEMKNHKLISAN
soluble on expression in E. coli: soluble

MAHHHHHHMSGILTNLNIESGYFNEDIKEESNESNFMYANISMLIRAYKKDRNKLILLNKKLNLIKIVGLVLNIEEKKEFIIYTIDDTTGCIKAKLLLTYSLNSYNEKKDNIKINDLIQIFGICNTVSLNEDLTISISSINKLDSFNYLCHHHLLVFHDYLKYQEEERRNPIEDKSRNDEDDLESTQNNENAYFNTFFY
soluble on expression in E. coli: not soluble

SSLIKKIEENERKDTLNTLQNMFPDMDPSLIEDVCIAAASRIGPCVDALLSLSE
soluble on expression in E. coli: soluble

MKLVTISGPPSSGKTAVLAGVIRAMMASGLKVGALKYDCLATNDDDVFRAIGVPVQTGLSGNLCPDHYFVSNIEECLDWGIREGFDFLLSESAGLCNRCAPHIKGVLAVCVIDNLMGATTPKKIGPMLKYADIVVITKGDIVSQAEREVFAFQVRRANPRAKIMHVNGITGQGAGELASQFLLAPETTCLDGSRLRFSMPAALCSYCLGETRIGMEFQLGNVKKIKMSEEPARLEHHHHHH
soluble on expression in E. coli: soluble

MWTGKTGNMLGALALTLTDRIRAEVNVSLDAGGETAAALVLLGANPALTVAEIAEALGLTHSGAVRLVDRLCVSGLAERQSGPDARAVHVRLTSAGARQRRRALLRRQAVLDHALQALSPSEEAAFAQMLDKLLRRMLDFPDQGHRFCRLCDEDLCVPHGCPVEERLVELLERQARETGL
soluble on expression in E. coli: not soluble

From the DeepSol protein solubility set
